Measured values: patent US20240000938A1 (published 2024)

What was measured:
Assay in all cases: activation reporter or marker
[1] = target: T1, HA-1(R), allelic variant; Rho GTPase activating protein 45 (HMHA1) peptide on HLA-A*02:01 (human)
T1 peptide: VLRDDLLEA

[2] = target: T2, HA-1 variant H, HA-1(H); Rho GTPase activating protein 45 (HMHA1) peptide on HLA-A*02:01 (human)
T2 peptide: VLHDDLLEA

[3] = target: T3, mH-Y (MiHA-Y) peptide on H-2Db (mouse)
T3 peptide: KCSRNRQYL

| Binder | binding result [1] | binding result [2] | binding result [3] |
| --- | --- | --- | --- |
| KP7 HA-1H TCR (TCR, V domains shown) Valpha: KNEVEQSPQNLTAQEGEFITINCSYSVGISALHWLQQHPGGGIVSLFMLSSGKKKHGRLIATINIQEKHSSLHITASHPRDSAVYICAVRSVSGAGSYQLTFGKGTKLSVIP Vbeta: DTGVSQNPRHKITKRGQNVTFRCDPISEHNRLYWYRQTLGQGPEFLTYFQNEAQLEKSRLLSDRFSAERPKGSFSTLEIQRTEQGDSAMYLCASSIDSFNEQFFGPGTRLTVL | no recognition | recognises | – |
| H-Y TCR Jb2.3L (TCR, V domains shown) Valpha: AQSVDQPDAHVTLSEGASLELRCSYSYSAAPYLFWYVQYPGQSLQFLLKYITGDTVVKGTKGFEAEFRKSNSSFNLKKSPAHWSDSAKYFCALEGQDQGGSAKLIFGEGTKLTVSS Vbeta: EAAVTQSPRNKVAVTGGKVTLSCNQTNNHNNMYWYRQDTGHGLRLIHYSYGAGSTEKGDIPDGYKASRPSQENFSLILELATPSQTSVYFCASGDNSAETLYFGPGTRLLVL | – | – | recognises |
